What was measured:
[1] = target: OVA peptide SIINFEKL-MHC complex (OVA257-264 presented in the context of MHC class I H-2K^b) on tumor cells (chicken); assay: cell-based or functional assay
[2] = target: SIINFEKL-specific TCR on CD8+ T-cells of OT-I transgenic mice; assay: flow cytometry, dextramer staining of OT-I activated CD8+ T-cells

Row | IL-2 (pg/ml) from B3Z T-cells; B16F10 tumor cells, OVA 0.25 mg/ml [1] | IL-2 (pg/ml) from B3Z T-cells; B16F10 tumor cells, OVA 0.5 mg/ml [1] | IL-2 (pg/ml) from B3Z T-cells; B16F10 tumor cells, OVA 1.0 mg/ml [1] | IL-2 (pg/ml) from B3Z T-cells; B16F10 tumor cells, OVA 2.5 mg/ml [1] | IL-2 (pg/ml) from B3Z T-cells; KP LUN31 tumor cells, OVA 0.125 mg/ml [1] | IL-2 (pg/ml) from B3Z T-cells; KP LUN31 tumor cells, OVA 0.25 mg/ml [1] | IL-2 (pg/ml) from B3Z T-cells; KP LUN31 tumor cells, OVA 0.5 mg/ml [1] | IL-2 (pg/ml) from B3Z T-cells; KP LUN31 tumor cells, OVA 1.0 mg/ml [1] | IL-2 (pg/ml) from B3Z T-cells; KP LUN31 tumor cells, OVA 2.5 mg/ml [1] | IL-2 (pg/ml) from B3Z T-cells; LL2 tumor cells, OVA 2.5 mg/ml [1] | IL-2 (pg/ml) from B3Z T-cells; LL2 tumor cells, OVA 5.0 mg/ml [1] | IL-2 (pg/ml) from B3Z T-cells; LL2 tumor cells, OVA 10 mg/ml [1] | IL-2 (pg/ml) from B3Z T-cells; MC38 tumor cells, OVA 2.5 mg/ml [1] | IL-2 (pg/ml) from B3Z T-cells; MC38 tumor cells, OVA 5.0 mg/ml [1] | IL-2 (pg/ml) from B3Z T-cells; MC38 tumor cells, OVA 10 mg/ml [1] | percent of cells positive [2] | Substance
1 | 22 pg/mL | 76 pg/mL | 323 pg/mL | 589 pg/mL | 22 pg/mL | 68 pg/mL | 247 pg/mL | 483 pg/mL | 913 pg/mL | 11 pg/mL | 26 pg/mL | 33 pg/mL | 54 pg/mL | 138 pg/mL | 338 pg/mL |  | T-cell receptor (TCR) of the T-cell hybridoma B3Z86/90.14 (B3Z)
2 |  |  |  |  |  |  |  |  |  |  |  |  |  |  |  | 100% | H-2 Kb SIINFEKL-APC conjugated dextramer (Immudex) (from UniProt P01901 22-369) (peptide-MHC)
